The text below walks through data of article PMC5286519, “Two strategies to engineer flexible loops for improved enzyme thermostability” (Scientific Reports, 2017).

Numbering of substitutions follows the chain as printed. Names and notes keep the numbering of the source.

Substrate in the data set: O=CCO
Kind of data set: HPLC of erythrulose formed, Michaelis-Menten fit. The format is biochemical, Escherichia coli. Particulars: 50 mM Li-HPA (saturating co-substrate), 4-80 mM GA, 2.4 mM ThDP, 9 mM MgCl2, 50 mM Tris-HCl pH 7.0, 22 °C. An excerpt: HPLC of erythrulose formed, Michaelis-Menten fit on Escherichia coli transketolase (TK); wild-type E. coli TK

B1: Escherichia coli transketolase (TK); wild-type E. coli TK (Escherichia coli K-12) (protein)
chain: MSSRKELANAIRALSMDAVQKAKSGHPGAPMGMADIAEVLWRDFLKHNPQNPSWADRDRFVLSNGHGSMLIYSLLHLTGYDLPMEELKNFRQLHSKTPGHPEVGYTAGVETTTGPLGQGIANAVGMAIAEKTLAAQFNRPGHDIVDHYTYAFMGDGCMMEGISHEVCSLAGTLKLGKLIAFYDDNGISIDGHVEGWFTDDTAMRFEAYGWHVIRDIDGHDAASIKRAVEEARAVTDKPSLLMCKTIIGFGSPNKAGTHDSHGAPLGDAEIALTREQLGWKYAPFEIPSEIYAQWDAKEAGQAKESAWNEKFAAYAKAYPQEAAEFTRRMKGEMPSDFDAKAKEFIAKLQANPAKIASRKASQNAIEAFGPLLPEFLGGSADLAPSNLTLWSGSKAINEDAAGNYIHYGVREFGMTAIANGISLHGGFLPYTSTFLMFVEYARNAVRMAALMKQRQVMVYTHDSIGLGEDGPTHQPVEQVASLRVTPNMSTWRPCDQVESAVAWKYGVERQDGPTALILSRQNLAQQERTEEQLANIARGGYVLKDCAGQPELIFIATGSEVELAVAAYEKLTAEGVKARVVSMPSTDAFDKQDAAYRESVLPKAVTARVAVEAGIADYWYKYVGLNGAIVGMTTFGESAPAELLFEEFGFTVDNVVAKAKELL
notes: full-length tktA product, N-terminal His6-tag (kept, no cleavage told), expressed in E. coli XL10-Gold from plasmid pQR791, Ni-NTA purified, dialysed into ThDP and MgCl2 (holo form), homodimer
As for B1, the Km is 20.5 (1.3) mM, the kcat was 62.3 s⁻¹ and the kcat/Km came to 3040 M⁻¹ s⁻¹.

B2: Escherichia coli transketolase (TK); wild-type E. coli TK (Escherichia coli K-12; D143K) (protein)
chain: B1 chain with D143K
notes: as for B1
Turning to B2, the Km is 16.1 (1.2) mM, the kcat turned out to be 48.1 s⁻¹ and the kcat/Km stood at 2990 M⁻¹ s⁻¹.

B3: Escherichia coli transketolase (TK); wild-type E. coli TK (Escherichia coli K-12; H192P) (protein)
chain: B1 chain with H192P
notes: as for B1
Take B3: the Km was 18.0 (1.2) mM, the catalytic constant (kcat) was 65.5 s⁻¹ and the kcat/Km amounted to 3640 M⁻¹ s⁻¹.

B4: Escherichia coli transketolase (TK); wild-type E. coli TK (Escherichia coli K-12; A282P) (protein)
chain: B1 chain with A282P
notes: as for B1
As for B4, the Km is on record as 17.6 (2.1) mM, the kcat is 45.5 s⁻¹ and the kcat/Km was determined as 2580 M⁻¹ s⁻¹.

B5: Escherichia coli transketolase (TK); wild-type E. coli TK (Escherichia coli K-12; A282P/H192P) (protein)
chain: B1 chain with H192P, A282P
notes: as for B1
With B5, the Km is reported as 23.3 (1.4) mM, the kcat is 81.2 s⁻¹ and the kcat/Km turned out to be 3480 M⁻¹ s⁻¹.

B6: Escherichia coli transketolase (TK); wild-type E. coli TK (Escherichia coli K-12; I189H) (protein)
chain: B1 chain with I189H
notes: as for B1
On to B6, for which the Km was 18.0 (0.8) mM.
